The source of these data is patent US20150125450A1 (published 2015).

Test [1] has as its target T1, murine IL-6 (murine, UniProt P08505 25-211).
T1 sequence (looked up): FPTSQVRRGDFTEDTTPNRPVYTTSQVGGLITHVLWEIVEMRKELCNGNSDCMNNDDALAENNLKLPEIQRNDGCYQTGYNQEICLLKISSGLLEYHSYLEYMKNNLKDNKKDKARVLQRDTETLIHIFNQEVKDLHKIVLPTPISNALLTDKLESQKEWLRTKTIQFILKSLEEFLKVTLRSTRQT
Nature of the test: Western blotting. On the technique in general: In western blotting, separated proteins are transferred to a membrane and probed.

Test [2] deals with human IL-6 (human, UniProt P05231 30-212). Nature of the test: cell-based or functional assay.
The target of test [3] is human TNF-α (human, UniProt P01375 77-233). Put plainly: cell-based or functional assay.
Test [4] deals with T2, murine TNF-α (murine, UniProt P06804 80-235).
T2 sequence (looked up): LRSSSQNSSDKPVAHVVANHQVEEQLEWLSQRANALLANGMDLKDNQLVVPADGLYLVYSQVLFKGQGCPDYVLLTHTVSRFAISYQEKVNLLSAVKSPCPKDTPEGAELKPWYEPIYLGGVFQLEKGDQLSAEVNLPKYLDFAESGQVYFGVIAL
Nature of the test: Western blotting, reducing conditions.

The target in test [5] is T3, human TNF-β (human, UniProt P01374 35-205, limits assumed).
T3 sequence (looked up): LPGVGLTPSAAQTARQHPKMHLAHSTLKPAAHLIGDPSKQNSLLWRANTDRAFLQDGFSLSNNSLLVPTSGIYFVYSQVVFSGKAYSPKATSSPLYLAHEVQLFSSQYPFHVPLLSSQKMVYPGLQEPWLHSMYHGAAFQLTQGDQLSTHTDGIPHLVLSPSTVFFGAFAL
Nature of the test: Western blotting, reducing conditions.

The target in test [6] is Cynomolgus monkey TNF-α (Cynomolgus monkey, UniProt P79337 77-233). Put plainly: ELISA. A general note: ELISA stands for enzyme-linked immunosorbent assay.
Cynomolgus monkey TNF-α, sequence (P79337 77-233 limits assumed): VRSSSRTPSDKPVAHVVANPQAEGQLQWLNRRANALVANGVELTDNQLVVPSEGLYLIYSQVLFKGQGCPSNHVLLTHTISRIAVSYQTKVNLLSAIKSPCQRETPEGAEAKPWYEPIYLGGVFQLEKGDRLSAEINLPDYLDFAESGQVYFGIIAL

human TNF-α, sequence (P01375 77-233 limits assumed): as the sequence (P79337 77-233 limits assumed) above, with V37L, T44R, N72T, L138R counted along it

B1: 2-3B2 mouse monoclonal antibody against human IL-6 (antibody, V domains shown)
VH: VKLQESGGGLVQPGGSRKLSCAASGFTFSRFGMHWVRQAPEKGLEWVAYIGRGSSTIYYADTVKGRFTISRDNPKNTLFLQMTSLRSEDTAMYYCARSNWDGAMDYWGQGTSVTVSS
VL: DIQLTQSPASLSASVGETVTITCRASGNIHNFLAWYQQKQGKSPQLLVYNAETLADGVPSRFSGSGSGTQYSLKINSLQPEDFGSYYCQHFWSTPWTFGGGTKLEIKR
notes: Murine IgG1/kappa hybridoma antibody; also called 2-3B2 anti-IL-6 antibody
Take B1: the binding result in test [1] was “no binding”. Besides, the “potency for inhibiting IL-6 induced phosphorylation of STAT3, relative to 4-4E6” value in test [2] is around 100 fold.

B2: 4C9 mouse anti-human TNF-α monoclonal antibody (antibody, mouse IgG1, V domains shown)
VH: VQLQESGPSLVKPSQTLSLTCSVTGDSITSGFWNWIRKFPGNKFEYMGYISYSGRTYYNPSLKSRLSITRDTSKNQFYLQLNSVTAEDTATYYCARDANYVLDYWGQGTTLTVSS
VL: DIQLTQSPSSLAMSVGQKVTMNCKSSQSLLNSSTQKNYLAWFQQKPGQSPKLLVYFASARESGVPDRFIGSGSGTDFTLTISSVQAEDLADYFCQQHYRTPFTFGSGTKLEIKR
notes: Murine IgG1/kappa; 4C9D11 and 4C9D11G11 are subclones of 4C9; also called 4C9D11; 4C9D11G11
As to B2, the “EC50, inhibition of TNF-α-induced cytotoxicity, L929 cells, MTS” value in test [3] is 0.0112 µg/mL. Also, the binding result in test [4] and in test [5] was “no binding” in each case.

B3: chimeric 4C9 antibody (chimeric anti-TNF-α clone 6A9) (antibody, V domains shown)
VH: VQLQESGPSLVKPSQTLSLTCSVTGDSITSGFWNWIRKFPGNKFEYMGYISYSGRTYYNPSLKSRLSITRDTSKNQFYLQLNSVTAEDTATYYCARDANYVLDYWGQGTTLTVSS
VL: DIQLTQSPSSLAMSVGQKVTMNCKSSQSLLNSSTQKNYLAWFQQKPGQSPKLLVYFASARESGVPDRFIGSGSGTDFTLTISSVQAEDLADYFCQQHYRTPFTFGSGTKLEIKR
notes: also called cIgG-anti-TNF-α
Turning to B3, the binding result in test [6] is “binds”.
